Experimental data from patent US20130011427A1 (priority 2009, published 2013).

Assays:
[1] = molecular target: HLA-A2.1 (HHD monochain) (human; murine); assay: cell-based or functional assay
[2] = molecular target: HLA-DR2 (chimeric HLA-DRA1*0101/DRB1*1501 with I-E domains) (human; murine) (UniProt Q8BHN5); assay: cell-based or functional assay
[3] = test system: HLA-A2.1 (HLA-A*0201) Tg mice, CD4-depleted splenocytes; type: cell-based, mouse
[4] = test system: HLA-DR2 (DRB1*1501) Tg mice, CD8-depleted splenocytes; type: cell-based, mouse

Chain of UniProt Q8BHN5 (Q8BHN5 whole entry, stated change not applied): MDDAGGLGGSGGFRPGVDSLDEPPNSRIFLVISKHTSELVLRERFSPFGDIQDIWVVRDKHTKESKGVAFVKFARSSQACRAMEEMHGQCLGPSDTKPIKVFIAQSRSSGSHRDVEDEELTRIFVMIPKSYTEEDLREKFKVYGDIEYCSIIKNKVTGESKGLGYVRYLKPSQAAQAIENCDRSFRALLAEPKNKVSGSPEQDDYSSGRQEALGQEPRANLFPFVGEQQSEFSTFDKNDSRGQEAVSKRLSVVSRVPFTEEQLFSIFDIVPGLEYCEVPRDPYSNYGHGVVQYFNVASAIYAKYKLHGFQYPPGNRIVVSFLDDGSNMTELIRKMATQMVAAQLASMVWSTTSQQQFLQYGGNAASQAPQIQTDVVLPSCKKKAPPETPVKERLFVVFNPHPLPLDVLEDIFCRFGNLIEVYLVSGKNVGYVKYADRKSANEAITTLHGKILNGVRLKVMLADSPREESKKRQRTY

IFN-γ ELISpot (SFC/10^6) [2] [SFC/10^6] | Substance | IFN-γ ELISpot (SFC/10^6) [1] [SFC/10^6] | further results
– | WNV NS1 228-245 peptide | 84 | –
– | WNV NS1 236-251 peptide | 78 | –
563 | WNV NS2a 6-23 peptide | – | –
516 | WNV NS2a 52-66 peptide | – | –
289 | WNV NS2a 80-97 peptide | – | –
384 | WNV NS2a 128-145 peptide | – | –
98 | WNV NS2a 136-154 peptide | – | –
– | WNV NS2a 160-177 peptide | 63 | –
74 | WNV NS2a 211-229 peptide | – | –
47 | WNV NS2b 39-56 peptide | – | –
59 | WNV NS2b 59-75 peptide | – | –
– | WNV NS2b 115-131 peptide | 108 | –
155 | WNV NS3 22-38 peptide | – | –
– | WNV NS3 70-87 peptide | 174 | –
– | WNV NS3 78-95 peptide | 150 | –
– | WNV NS3 85-100 peptide | 72 | –
– | WNV NS3 91-107 peptide | 156 | –
– | WNV NS3 98-115 peptide | 145 | –
– | WNV NS3 138-155 peptide | 159 | –
– | WNV NS3 146-162 peptide | 58 | –
59 | WNV NS3 176-192 peptide | – | –

IFN-γ ELISpot (SFC/10^6) [2] [SFC/10^6] | Substance | IFN-γ ELISpot (SFC/10^6) [1] [SFC/10^6] | further results
52 | WNV NS3 199-216 peptide | – | –
– | WNV NS3 221-237 peptide | 26 | –
– | WNV NS3 241-258 peptide | 127 | –
– | WNV NS3 304-321 peptide | 94 | –
– | WNV NS3 317-333 peptide | 151 | –
– | WNV NS3 324-340 peptide | 117 | –
– | WNV NS3 336-352 peptide | 167 | –
– | WNV NS3 343-360 peptide | 55 | –
– | WNV NS3 359-376 peptide | 75 | –
– | WNV NS3 413-430 peptide | 130 | –
123 | WNV NS3 460-475 peptide | – | –
– | WNV NS3 530-547 peptide | 127 | –
42 | WNV NS3 588-605 peptide | – | –
89 | WNV NS4b 30-47 peptide | – | –
62 | WNV NS4b 233-250 peptide | – | –
168 | WNV NS5 212-229 peptide | – | –
– | WNV NS5 448-463 peptide | 26 | –
101 | WNV prM 114-130 peptide | – | –
84 | WNV prM 144-161 peptide | – | –
– | YISAIVQGERMDEPIPA [NS3 161-177] | – | T cell activation of HLA transgenic mice (SFC/10^6) IFN-γ ELISpot, A2 [3]: 56 ± 28 SFC/10^6; T cell activation of HLA transgenic mice (SFC/10^6) IFN-γ ELISpot, DR2 [4]: 72 ± 15 SFC/10^6

Substance | IFN-γ ELISpot (SFC/10^6) [2] [SFC/10^6] | IFN-γ ELISpot (SFC/10^6) [1] [SFC/10^6] | further results
WNV NS3 161-177 peptide | 72 | 56 | –
WNV NS3 183-200 peptide | 55 | 62 | –
WNV NS3 206-223 peptide | 323 | 108 | –
WNV NS3 214-230 peptide | 146 | – | –
WNV NS3 249-266 peptide | 139 | 79 | –
WNV NS3 265-282 peptide | 169 | 150 | –
WNV NS3 455-469 peptide | 200 | – | –
WNV NS3 515-532 peptide | 95 | 140 | –
WNV NS3 523-539 peptide | 160 | 57 | –
WNV NS5 181-198 peptide | 122 | – | –
WNV NS5 598-615 peptide | 252 | – | –
